These binders were tested against high-stability mutant of the MMP-9 catalytic domain lacking the fibronectin-like domain (MMP9CAT*) (human) (UniProt P14780) (assay: enzymatic activity inhibition assay).

| Ki [nM] | Binder |
| --- | --- |
| 0.59 | N-TIMP2-PAT200 (protein) CSCSPVHPQQAFCNADVVIRAKAVSEKEVDSGNDIYGNPIKRIQYEIKQIKMFKGPEDIEFIYTAPSSAVCGVSLDVGGKKEYLIAGKAEGDGKMHITLCDFIVPWDTLSTTQKKSLNHRYQMGCEATPTPAPTAPTTPTPTPTTPAPTTPTTPATPAPTTPATPAPTPATPTPAAPAPTTPTPAAPAPTPATPTAPAPTTPTAPTAPTPATPATPAAPTPTPTTPTTPTAPAAPTPTAPTAPAPTAPTAPTAPATPAAPATPTPAPTAPATPTPAAPTTPTAPTPTPTPAPATPAAPAPTPATPAAPTTPAAPTAPAAPTTPTPT |
| 0.32 | N-TIMP2 (WT N-terminal domain of TIMP2 containing internal FLAG-tag, c-myc-tag and His-tag) (domain or fragment) CSCSPVHPQQAFCNADVVIRAKAVSEKEVDSGNDIYGNPIKRIQYEIKQIKMFKGPEDIEFIYTAPSSAVCGVSLDVGGKKEYLIAGKAEGDGKMHITLCDFIVPWDTLSTTQKKSLNHRYQMGCE |
| 0.24 | N-TIMP2-PAT100 (protein) CSCSPVHPQQAFCNADVVIRAKAVSEKEVDSGNDIYGNPIKRIQYEIKQIKMFKGPEDIEFIYTAPSSAVCGVSLDVGGKKEYLIAGKAEGDGKMHITLCDFIVPWDTLSTTQKKSLNHRYQMGCETAPAAPATPAPTAPTPTPAAPAPTTPATPAPTPAAPAPAPTAPTAPAAPTAPATPAAPTTPTPTTPTPATPTPTAPAPATPTTPTPTAPAAPTPAPTTPA |
